Experiment [1] addresses T1, 人CD47 (human, UniProt Q08722 19-139, limits assumed).
T1 construct: The construct is not described
The experiment in a line: ELISA competition, blocking of CD47 binding to SIRPα. On the technique in general: In an ELISA, binding on a coated surface is turned into a signal by an enzyme label.

Experiment [2] deals with T1, 人CD47. As to the kind of experiment: BLI.
Experiment [3] has as its target T2, 人CLDN18.2 (human, UniProt P56856-2 1-261, limits assumed).
T2 construct: The construct and its source are not described; P56856 is the CLDN18 entry; CLDN18.2 is its isoform 2 (A2)
T2 sequence (looked up): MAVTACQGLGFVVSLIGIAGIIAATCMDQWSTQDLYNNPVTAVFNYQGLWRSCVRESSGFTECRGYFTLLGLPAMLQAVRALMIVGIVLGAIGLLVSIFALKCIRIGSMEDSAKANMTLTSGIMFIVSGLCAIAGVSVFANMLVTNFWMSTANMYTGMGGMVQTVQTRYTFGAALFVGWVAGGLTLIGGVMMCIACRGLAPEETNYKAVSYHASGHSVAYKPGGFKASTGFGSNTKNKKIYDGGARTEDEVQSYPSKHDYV
As to the kind of experiment: BLI. Background: BLI is a label-free optical method that tracks binding on a fibre tip over time.

For experiment [4], the target named is T1, 人CD47. The experiment in a line: ELISA.
Experiment [5] concerns the target T2, 人CLDN18.2. As to the kind of experiment: ELISA.

What is called IC50 is the concentration at which inhibition is half-maximal. Low readings indicate greater potency in that assay, high ones weaker potency in that assay. What is called Kd is the constant that tells how readily two partners part at equilibrium. Low values mean tighter binding, high ones weaker binding. The EC50 is the concentration needed to bring the measured effect to its halfway point. The low end stands for higher potency in that assay, the high end for lower potency in that assay.

T1 sequence (Q08722 19-139 limits assumed): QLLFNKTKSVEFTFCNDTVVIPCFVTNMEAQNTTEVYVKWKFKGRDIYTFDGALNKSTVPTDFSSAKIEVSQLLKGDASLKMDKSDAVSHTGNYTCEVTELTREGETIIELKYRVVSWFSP

B1: 抗CD47-CLDN18.2双特异性抗体双抗A (bispecific antibody, human IgG1, kappa)
heavy: not shown
light: DIQMTQSPSSLSASVGDRVTITCRASQDISNHLNWYQQKPGKAPKLLIYYTSRIHSGVPSSFRGSGSGTDYTLTISSLQPEDIATYFCQQGYTLPFTFGSGTKLEIKRTVAAPSVFIFPPSDEQLKSGTASVVCLLNNFYPREAKVQWKVDNALQSGNSQESVTEQDSKDSTYSLSSTLTLSKADYEKHKVYACEVTHQGLSSPVTKSFNRGEC
notes: The short chain is the A7H3L3 kappa light chain; Expressed in CHO-K1; also called 本发明抗体
With B1, in experiment [1], the 50% inhibitory concentration (IC50) amounted to 2.2 µg/mL. The Kd stood at 21.8 nM in experiment [2] and 1.87 nM in experiment [3]. Further, the EC50 in experiment [4] amounted to 0.0462 µg/mL; in experiment [5] it was 0.121 µg/mL.

The values above are taken from patent publication CN117192118A (DRAGONBOAT BIOPHARMACEUTICAL SHANGHAI CO LTD, dated 2023).
